Source: US20020045192A1, “Arf and HDM2 interaction domains and methods of use thereof” (St. Jude Children's Research Hospital, priority 2001, published 2002)
“Also recorded” adds a separate entry of the source.

Assays:
[1] = target: T1, GFP-p19^Arf (Mus musculus, UniProt Q64364); assay: Nuclear microinjection and live cell imaging of Texas Red labeled Hdm2 constructs in NIH 3T3 cells lacking Arf; assay type: cell-based; conditions: NIH 3T3 Arf-/- cells, nuclear microinjection
T1 construct: expressed in transfected cells; host or cells: NIH 3T3 Arf-/- cells
T1 sequence (Q64364 1-169): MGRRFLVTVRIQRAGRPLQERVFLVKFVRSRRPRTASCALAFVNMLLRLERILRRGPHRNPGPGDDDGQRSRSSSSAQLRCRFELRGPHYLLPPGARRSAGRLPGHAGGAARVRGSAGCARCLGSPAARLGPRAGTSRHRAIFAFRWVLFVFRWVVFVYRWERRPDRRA
Experimental: Proteins for fluorescence microimaging studies were covalently modified using an amine-reactive, sulfosuccinimidyl ester of Texas Red™ (Molecular Probes, Inc., Cat. # C-1171). In brief, purified Hdm2-derived proteins were dialyzed into 100 mM sodium bicarbonate buffer, pH 8.3 at 2-4 mg/ml. The Texas Red™ dye was dissolved in dimethylsulfoxide at 10 mg/ml. Protein and dye 3:1 (vol:vol) were reacted for 1 hour at room temperature followed by purification using size-exclusion chromatography (NAP 5 G-25 columns, Amersham Pharmacia Biotech, Inc.). Labeled protein bands migrated more slowly than unlabeled protein in SDS-polyacrylamide gels consistent with the covalent attachment of dye.
NIH 3T3 Arf^−/− cells passage 10-15 were cultured in Dulbecco's modified Eagle's medium (Dulbecco's modified Eagle's medium (DMEM); Gibco-Invitrogen, Inc.), 10% fetal bovine serum (FBS) at 37° C., 7% CO2. 24 hours prior to transfection, cells were plated on 35 mm dishes coated with poly-D-Lysine (Mattek, Corp.) at a density of 3×10^4 cells per dish. Cells were transfected with a pcDNA plasmid (Invitrogen) containing the GFP-p19^ARF fusion protein using Fugene-6 (Roche Molecular Biochemicals, Inc.) in media according to the protocol supplied by the manufacturer. Sixteen hours post-transfection, the transfection media was refreshed with DMEM, 10% FBS and the cells were allowed to recover for four hours. […] An Axiovert 135 TV inverted fluorescence microscope with an automated stage controller (Carl Zeiss, Inc.) and circulating water bath heater (Fisher) was used for both microinjection and imaging. […]
Hdm2 deletion constructs tagged with a fluorescent label (Texas Red™) were microinjected into the nucleus of NIH 3T3 cells. importantly, the NIH 3T3 cell line used lacks the gene for Arf. […] A covalently bound fluorescent label was used to detect Hdm2 fragments instead of immuno fluorescence to avoid nonspecific background staining and staining variability due to differential antibody reactivity. […]

[2] = target: T2, mArfN37 (Mus musculus, UniProt Q64364); assay: SPR binding of Hdm2 constructs and Hdm2 peptides to immobilized His-tagged mArfN37
T2 construct: An N-terminal fragment of mouse p19^Arf corresponding to residues 1-37 (mArfN37) was purified in a similar manner; made in house
T2 sequence (Q64364 1-37 limits assumed): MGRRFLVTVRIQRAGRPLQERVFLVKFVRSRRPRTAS
Experimental: Binding studies were performed using a Biacore 3000 surface plasmon resonance (SPR) instrument (Biacore, Inc.). A Tetra-His™ Antibody (Qiagen, Inc.; Cat. #34670) was covalently attached to a carboxymethylated gold surface (C-1 chip; Biacore, Inc.). The carboxymethyl groups on the surface were activated with N-ethyl-N′-(3-dimethylaminopropyl) carbodiimide (EDC) and N-hydroxysuccinimide (NHS) and the antibody was attached at pH 7.4 in 20 mM sodium phosphate buffer, 150 mM NaCl (PBS). Reactive sites remaining on the surface were blocked by reaction with ethanolamine. […] Binding was measured by flowing the non-His-tagged analyte through the reference and ligand-containing flow cells in sequence. […] Changes in the SPR response due to solvent differences and the injection process were monitored by injection of HBS-N buffer alone. […]
It has been previously shown that a fragment of mouse p19^Arf containing the N-terminal 37 amino acids (mArfN37) can (i) bind Hdm2, (ii) cause the relocalization of Hdm2 to nucleoli, and (iii) induce cell cycle arrest in MEFs [see, U.S. patent application Ser. No. 09/480,718, Filed Jan. […] However, because mArfN37 is a relatively small polypeptide, it was determined whether it could bind a correspondingly small segment of Hdm2. […]

[3] = target: T3, Hdm2 210-275 (Homo sapiens, UniProt Q00987); assay: CD-based binding assay, β-strand formation with Hdm2 210-275
T3 construct: poly-His (thrombin-cleavable, from pET28a) (cleaved yes); made in house; host or cells: E. coli BL21 (DE3)
T3 sequence (Q00987 210-275): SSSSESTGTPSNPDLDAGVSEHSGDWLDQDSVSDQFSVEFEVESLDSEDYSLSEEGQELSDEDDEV
Experimental: (§1) Spectra were recorded at 25° C. using an Aviv Model 62A DS circular dichroism spectropolarimeter (Aviv Instruments, Inc.) equipped with a thermoelectric temperature control unit. All samples were prepared in 10 mM Tris-HCl, pH 7.0 at 0.02-0.2 mM as determined by amino acid analysis. Spectra were recorded using 1 mm quartz cuveftes and reported spectra are the average of 10 scans over the range […]. Melting experiments were recorded in 10 mm quartz cuvettes with active stirring. The signal at 216 nm (β strand minimum) was used to monitor structural changes and the signal was averaged over 15 sec. The sample temperature was increased in 1° C. steps.
(§2) As discussed above, the addition of mArfN37 to Hdm2 210-304 results in the formation of supramolecular assemblies comprised of β-strands. Stepwise addition of sub-stoichiometric amounts of mArfN37 to Hdm2 210-304 increased β-strand secondary structure content as judged by the change in ellipticity at 200 nm using CD. […] The binding of mArfN37 to Hdm2 210-304, as monitored in this way, is saturable. Similar results were obtained when mArfN37 was mixed with the shorter fragment of Hdm2, Hdm2 210-275. Further, saturable binding is also observed when the Hdm2 fragments were added to an excess of mArfN37. These findings indicate that there are a limited number of binding sites for mArfN37 within Hdm2 210-304 and that discreet structures (containing β-strands) form when mArfN37 and Hdm2 210-304 (or 210-275) are mixed. […] Similar behavior is observed when mArfN37 binds Hdm2 210-275.

[4] = target: T4, Hdm2 210-304 (Homo sapiens, UniProt Q00987); assay: CD-based binding assay, β-strand formation with Hdm2 210-304
T4 construct: poly-His (thrombin-cleavable, from pET28a) (cleaved yes); made in house; host or cells: E. coli BL21 (DE3)
T4 sequence (Q00987 210-304): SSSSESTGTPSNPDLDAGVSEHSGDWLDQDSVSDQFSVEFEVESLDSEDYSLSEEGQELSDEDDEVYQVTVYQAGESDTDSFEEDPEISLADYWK
Experimental: as §1, §2
To investigate the roles of individual Arf motifs (A1 and A2) and Arf-binding segments of Hdm2 (H1 and H2) in the interactions between Arf and Hdm2 the binding of peptides containing these small segments (A1, A2, H1, or H2) to larger protein fragments of the corresponding binding partner (mArfN37 or Hdm2 210-304) were monitored using the CD-based binding assay. […] Peptides from the Hdm2 library that were positive for mArfN37 binding on the basis of SPR (i.e. those within H1 and H2) were mixed with mArfN37 and binding was monitored in the same manner. Three peptides from the H1 segment and one from the H2 segment of Hdm2 induce β-strand secondary structure when mixed with mArfN37 (FIG. 2c). These experiments indicate that peptides containing A1, A2, H1 or H2 can interact with larger fragments of the target protein and that the interactions also occur through the formation of β-sheet secondary structure. […] Importantly, however, further reduction in the size of the interacting species led to a loss of Arf/Hdm2 binding as judged by a failure to induce structure in CD titration experiments. […] Similarly, while peptides derived from the H1 or H2 segments of Hdm2 bind mArfN37, they fail to bind peptides derived from the A1 or A2 segments of mouse or human Arf. Furthermore, mixtures of two, three, or four different peptides that contain the important binding segments (A1, A2, H1, and H2) fail to interact, in contrast to the results obtained when A1 and A2, or H1 and H2, are covalent linked in larger protein fragments. Apparently, cooperative interactions between covalently linked binding segments from one protein (A1 and A2 of Arf, or H1 and H2 of Hdm2) are minimally required for Arf/Hdm2 interactions.

induction of β-strand assembly when mixed with Hdm2 210-275 (CD) [3] | Substance | induction of β-strand secondary structure when mixed with Hdm2 210-304 (CD) [4] | also measured
 | Hdm2 210-304: Fragment of Hdm2 corresponding to residues 210-304 of SEQ ID NO:8 |  | localization of Texas Red labeled Hdm2 construct in cells that did not express Arf [1]: evenly dispersed in the nucleoplasm; localization of Texas Red labeled Hdm2 construct when GFP-p19^Arf is expressed [1]: co-localized within nucleoli; also recorded: nucleolar localization; binding to His-tagged mArfN37 immobilized on the SPR biosensor surface ([2]; His-mArfN37 captured by covalently linked His antibody): bind tightly
 | Hdm2 277-491: Texas Red labeled Hdm2 deletion construct containing residues 277-491 |  | localization of Texas Red labeled Hdm2 construct when GFP-p19^Arf is expressed [1]: nucleolar localization
interaction | human A1 (1-14): Peptide containing the human Arf motif A1, residues 1-14 (MVRRFLVTLRIRRA) | produce the random-to-β-strand structure transition | 
fail to induce β-strand assembly | human A2 (16-30): Peptide containing the human Arf motif A2, residues 16-30 (GPPRVRVFVVHIPRL) | produce the random-to-β-strand structure transition | 
interaction | mouse A1 (1-14): Peptide corresponding to the mouse Arf motif A1, residues 1-14 (MGRRFLVTVRIQRA) | induce the transition from random conformations to β-strand secondary structure | 
fail to induce β-strand assembly | mouse A2 (16-30): Peptide corresponding to the mouse Arf motif A2, residues 16-30 (RPLQERVFLVKFVRS) | induce the transition from random conformations to β-strand secondary structure | 
 | residues 290-304 of SEQ ID NO:8: short synthetic Hdm2 peptide containing residues 290-304 of SEQ ID NO:8 (SFEEDPEISLADYWK; listed as Homo sapiens) |  | relative binding affinity for mArfN37 (SPR) ([2]; short synthetic Hdm2 peptides, 15 amino acids): modest affinity

Substance | induction of β-strand assembly when mixed with Hdm2 210-275 (CD) [3] | induction of β-strand secondary structure when mixed with Hdm2 210-304 (CD) [4] | also measured
mArfN37: N-terminal fragment of mouse p19^Arf corresponding to residues 1-37 (MGRRFLVTVRIQRAGRPLQERVFLVKFVRSRRPRTAS) | striking transition from random conformations to β-strand secondary structure | striking transition from random conformations to β-strand secondary structure | 
